Assay results taken from publication doi:10.1101/2024.06.25.600556 (bioRxiv, 2024).

Biological target: the molecule itself
Test: crystal structure

B1: Streptococcus pneumoniae pyruvate kinase (enzyme)
chain: MNKRVKIVATLGPAVEIRGGKKFGEDGYWGEKLDVEASAKNIAKLIEAGANTFRFNFSHGDHQEQGERMATVKLAEKIAGKKVGFLLDTKGPEIRTELFEGEAKEYSYKTGEKIRVATKQGIKSTREVIALNVAGALDIYDDVEVGRQVLVDDGKLGLRVVAKDDATREFEVEVENDGIIAKQKGVNIPNTKIPFPALAERDNDDIRFGLEQGINFIAISFVRTAKDVNEVRAICEETGNGHVQLFAKIENQQGIDNLDEIIEAADGIMIARGDMGIEVPFEMVPVYQKMIIKKVNAAGKVVITATNMLETMTEKPRATRSEVSDVFNAVIDGTDATMLSGESANGKYPLESVTTMATIDKNAQALLNEYGRLDSDSFERNSKTEVMASAVKDATSSMDIKLVVTLTKTGHTARLISKYRPNADILALTFDELTERGLMLNWGVIPMLTDAPSSTDDMFEIAERKAVEAGLVESGDDIVIVAGVPVGEAVRTNTMRIRTVR
  stoichiometry N: 4
